Data as given in paper PMC10625714 (Nature chemical biology, 2023).

Target: the molecule itself
Assay: cryo-EM structure

B1: nuclease-deficient AsCas12f (AsCas12f-D225A) (enzyme, Acidibacillus sulfuroxidans)
chain: MIKVYRYEIVKPLDLDWKEFGTILRQLQQETRFALNKATQLAWEWMGFSSDYKDNHGEYPKSKDILGYTNVHGYAYHTIKTKAYRLNSGNLSQTIKRATDRFKAYQKEILRGDMSIPSYKRDIPLDLIKENISVNRMNHGDYIASLSLLSNPAKQEMNVKRKISVIIIVRGAGKTIMDRILSGEYQVSASQIIHDDRKNKWYLNISYDFEPQTRVLDLNKIMGIALGVAVAVYMAFQHTPARYKLEGGEIENFRRQVESRRISMLRQGKYAGGARGGHGRDKRIKPIEQLRDKIANFRDTTNHRYSRYIVDMAIKEGCGTIQMEDLTNIRDIGSRFLQNWTYYDLQQKIIYKAEEAGIKVIKIDPQYTSQRCSECGNIDSGNRIGQAIFKCRACGYEANADYNAARNIAIPNIDKIIAESIK
stoichiometry N: 2
